Reference: the RNAGym collection of RNA variant scans (doi:10.1073/pnas.2313332121)
Fewer inactive variants are shown than the library holds.

B1: TPR 5TU (parent)
chain: GGAUCUUCUCGAUCUAACAAAAAAGACAAAUCUGCCACAAAGCUUGAGAGCAUCUUCGGAUGCAGAGGCGGCAGCCUUCGGUGGCGCGAUAGCGCCAACGUUCUCAACUAUGACACGCAAAACGCGUGCUCCGUUGAAUGGAGUUUAUCAUG

Variants of: B1
Test: polymerase ribozyme fitness, log enrichment relative to wild type (log ratio); higher = more active; in vitro selection for triplet polymerase activity
How it was run: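 Frozen incubation at −7 °C formed the core of a single, triplicate in vitro selection round applied to PCR-built, transcribed mutant libraries of each subunit of a heterodimeric triplet polymerase ribozyme. Extended constructs were gel-excised, captured with streptavidin beads and amplified by RT-PCR, and input and output libraries were Illumina-sequenced with a filter of ≥10 input reads and ≥1 read per output. Fitness is the logarithm of genotype enrichment relative to wild-type enrichment, with inverse-variance-weighted replicate averaging, and the logarithm is base 2.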

Variant | polymerase ribozyme fitness (log ratio)
G70U G81A | -2.35
C69A G140U | -3.21
G71U G74C A120C | ≤ -4.2
G70A C87U C96A C118G A147C | ≤ -4.2
G70C G136C | ≤ -4.2
A66G G100C A107C C114U A122C G133C | ≤ -4.2
A66C | -4.16
A66U | -3.46
A66G | -2.32
C69U G84U G133C | -3.62
G68C G83U G133U A137C | ≤ -4.2
G68A A122G G133C | ≤ -4.2
G68U G94C C95A A115U G136U | ≤ -4.2
C69U A119U | -1.57
G70C C87G C96G A107G U146G | ≤ -4.2
G67C C93G C99G A137U U146A | ≤ -4.2
C69A G81U G84U | ≤ -4.2
A66G G92C C95A C103U C108G U151C | ≤ -4.2
G71A G80U C85U | ≤ -4.2
G70A C87U A106G | -2.89
G68C G88U U104G C114U U127C | ≤ -4.2

Variant | polymerase ribozyme fitness (log ratio)
G70U C87A A115U C116A U151A | ≤ -4.2
G68C A89G A120G A147U U148G | ≤ -4.2
G68A G88C A110C U135C | ≤ -4.2
G68C C99G A106G C129U | ≤ -4.2
A66C G70A G71A G100U G143A U148G | ≤ -4.2
G71A C87G C93A C95G | ≤ -4.2
G68A A91C A120G A147C | ≤ -4.2
G67A | -3.22
G67C | -3.97
G67U | -2.55
G65U G94A | ≤ -4.2
G68U A73G C76U A91U A98G C99A G112U | ≤ -4.2
C69U G94C | -1.65
C69U G128C U130C C132G U135A A138C | ≤ -4.2
C69U G70A C99A G100A | ≤ -4.2
C69G G126U C131A | ≤ -4.2
C69A G84A U104G C125U G126A A142C | ≤ -4.2
G68A C87A A106C G117U | ≤ -4.2
G70A G83U C105A A147C U148A | ≤ -4.2
G67C G80C G92A C103A C118G G133A | ≤ -4.2
C69U C87A G141U G143A | ≤ -4.2

Variant | polymerase ribozyme fitness (log ratio)
G71A G86A | -3.5
A66C C85G | -4.16
A66U G88A U145G U148C A150C | ≤ -4.2
G71A C96A | -3.18
A66G U82G C93A | ≤ -4.2
G67A G81A A91C A137C U148C | ≤ -4.2
G67C C87A G100A | ≤ -4.2
G70A C76A C79G A91U | ≤ -4.2
G68A A106C A120G A138C | ≤ -4.2
G71C C76G A113U G124A | ≤ -4.2
C69G G86C A121C | ≤ -4.2
G71U C72A A91G C116A A138U | ≤ -4.2
A66U C75G U82G A106C C116U | ≤ -4.2
G70A G88C C96G U134G | ≤ -4.2
G70A G141A | -3.46
G70C A142C | -3.72
G67C G92A C96U C118U | ≤ -4.2
C69U G136A A142U | -0.531
A66C A73G G80C C114A G141A | ≤ -4.2
G71U C108U | ≤ -4.2
C69U C96G C125U | -1.78

Variant | polymerase ribozyme fitness (log ratio)
G68A G86A C87G | ≤ -4.2
C69U A73G G83C | -3.38
C69G C103A U144G | -1.57
G71C C95A | ≤ -4.2
G68A C85U A97U A107U G128A C132U | ≤ -4.2
G70A A73U G133A U135G | ≤ -4.2
G67C G83A | ≤ -4.2
G70C G86A C114U A115G G143U A150C | ≤ -4.2
C69A A73C G86A A119C U145A | ≤ -4.2
G71A C85U C96A A107G C118A | ≤ -4.2
G68A C87U C114A U144C | -4.11
G67C G94A U139A A142U | ≤ -4.2
C69U G86C | ≤ -4.2
C69U G100A A137C | ≤ -4.2
G65U G71C A73U A122U G126A A137C U146A | ≤ -4.2
C69U G84C C132G G143A | ≤ -4.2
A66G G133U U145A | ≤ -4.2
A66G A89U C93U C95G | ≤ -4.2
G70A G86U | -3.77
G67C C93G C118G A150C | ≤ -4.2
C69A G71U C85G C103U G117C | -3.28
